Results on one substance are retold here after publication PMC11546984.

For assay [1], the target named is Crovalimab (human). The experiment in a line: SPR; Biacore T200, 37 °C, pH 7.4; antibodies captured by goat anti-human IgG (Fc) on a CM4 chip (50-80 RU); recombinant human C5 as analyte, three-fold dilutions from 27 nM; 20 mM ACES, 150 mM NaCl, 1.2 mM CaCl2, 0.05% Tween 20, 0.005% NaN3; 1:1 binding model. (Surface plasmon resonance follows binding to a sensor surface in real time, without labels.)
Sequence of Crovalimab (human) (light, as listed by the source, chain 2 of 2, other chains not shown): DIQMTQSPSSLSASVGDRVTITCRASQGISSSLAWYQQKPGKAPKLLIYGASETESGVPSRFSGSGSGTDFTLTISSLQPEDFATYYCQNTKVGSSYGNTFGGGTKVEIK

In assay [2] the target is Crovalimab (human). In words: SPR; Biacore T200, 37 °C, pH 5.8; antibodies captured by goat anti-human IgG (Fc) on a CM4 chip (50-80 RU); recombinant human C5 as analyte, three-fold dilutions from 135 nM; 20 mM ACES, 150 mM NaCl, 1.2 mM CaCl2, 0.05% Tween 20, 0.005% NaN3; 1:1 binding model.

The term Kd denotes the constant that tells how readily two partners part at equilibrium. A word on the koff: it is the first-order rate constant of dissociation. For orientation: kon means the rate constant with which the complex forms. Turning to Recombinant human C5 (natural protein), in assay [1], the dissociation constant Kd was determined as 0.166 nM, the koff came out at 0.000123 s⁻¹ and the kon turned out to be 741000 M⁻¹ s⁻¹. Also, in assay [2], the equilibrium dissociation constant (Kd) turned out to be 132 nM, the koff stood at 0.0164 s⁻¹ and the on-rate (kon) was found to be 125000 M⁻¹ s⁻¹.
